These are literature values, as cited in article PMC2033707.

The data set has as its target EGF (UniProt P01133).
Sequence of UniProt P01133 (P01133 971-1023): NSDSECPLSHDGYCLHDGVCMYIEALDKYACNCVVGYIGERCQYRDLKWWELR

Take EGFR (from UniProt P00533): the Kd (usually a measure of binding affinity in units of concentration) was 1 nM.
